Data reported in paper PMC8916587, “Endoglin Wild Type and Variants Associated With Hereditary Hemorrhagic Telangiectasia Type 1 Undergo Distinct Cellular Degradation Pathways” (Frontiers in Molecular Biosciences, 2022).

B1: HA-tagged WT Endoglin (receptor, UniProt P17813 26-658, looked up)
chain: ETVHCDLQPVGPERGEVTYTTSQVSKGCVAQAPNAILEVHVLFLEFPTGPSQLELTLQASKQNGTWPREVLLVLSVNSSVFLHLQALGIPLHLAYNSSLVTFQEPPGVNTTELPSFPKTQILEWAAERGPITSAAELNDPQSILLRLGQAQGSLSFCMLEASQDMGRTLEWRPRTPALVRGCHLEGVAGHKEAHILRVLPGHSAGPRTVTVKVELSCAPGDLDAVLILQGPPYVSWLIDANHNMQIWTTGEYSFKIFPEKNIRGFKLPDTPQGLLGEARMLNASIVASFVELPLASIVSLHASSCGGRLQTSPAPIQTTPPKDTCSPELLMSLIQTKCADDAMTLVLKKELVAHLKCTITGLTFWDPSCEAEDRGDKFVLRSAYSSCGMQVSASMISNEAVVNILSSSSPQRKKVHCLNMDSLSFQLGLYLSPHFLQASNTIEPGQQSFVQVRVSPSVSEFLLQLDSCHLDLGPEGGTVELIQGRAAKGNCVSLLSPSPEGDPRFSFLLHFYTVPIPKTGTLSCTVALRPKTGSQDQEVHRTVFMRLNIISPDLSGCTSKGLVLPAVLGITFGAFLIGALLTAALWYIYSHTRSPSKREPVVAVAAPASSESSSTNHSIGSTQSTPCSTSSMA
notes: Endoglin (CD105), wild type, encoded by ENG; Seen as a dimer on a non-reducing gel; also called Endoglin WT; ENG-WT; source: HEK293, stably transfected (pcDNA3.0), in lysate
B2: HA-tagged Endoglin mutant variant P165L (receptor, UniProt P17813 26-658, looked up)
chain: ETVHCDLQPVGPERGEVTYTTSQVSKGCVAQAPNAILEVHVLFLEFPTGPSQLELTLQASKQNGTWPREVLLVLSVNSSVFLHLQALGIPLHLAYNSSLVTFQEPPGVNTTELPSFPKTQILEWAAERGPITSAAELNDLQSILLRLGQAQGSLSFCMLEASQDMGRTLEWRPRTPALVRGCHLEGVAGHKEAHILRVLPGHSAGPRTVTVKVELSCAPGDLDAVLILQGPPYVSWLIDANHNMQIWTTGEYSFKIFPEKNIRGFKLPDTPQGLLGEARMLNASIVASFVELPLASIVSLHASSCGGRLQTSPAPIQTTPPKDTCSPELLMSLIQTKCADDAMTLVLKKELVAHLKCTITGLTFWDPSCEAEDRGDKFVLRSAYSSCGMQVSASMISNEAVVNILSSSSPQRKKVHCLNMDSLSFQLGLYLSPHFLQASNTIEPGQQSFVQVRVSPSVSEFLLQLDSCHLDLGPEGGTVELIQGRAAKGNCVSLLSPSPEGDPRFSFLLHFYTVPIPKTGTLSCTVALRPKTGSQDQEVHRTVFMRLNIISPDLSGCTSKGLVLPAVLGITFGAFLIGALLTAALWYIYSHTRSPSKREPVVAVAAPASSESSSTNHSIGSTQSTPCSTSSMA
notes: Endoglin (CD105) with the HHT1 disease-causing missense variant P165L, made by site directed mutagenesis; Retained in the ER; also called ENG-P165L; p; P165L; source: HEK293, stably transfected (pcDNA3.0), in lysate
B3: HA-tagged Endoglin mutant variant V105D (receptor, UniProt P17813 26-658, looked up)
chain: ETVHCDLQPVGPERGEVTYTTSQVSKGCVAQAPNAILEVHVLFLEFPTGPSQLELTLQASKQNGTWPREVLLVLSVNSSDFLHLQALGIPLHLAYNSSLVTFQEPPGVNTTELPSFPKTQILEWAAERGPITSAAELNDPQSILLRLGQAQGSLSFCMLEASQDMGRTLEWRPRTPALVRGCHLEGVAGHKEAHILRVLPGHSAGPRTVTVKVELSCAPGDLDAVLILQGPPYVSWLIDANHNMQIWTTGEYSFKIFPEKNIRGFKLPDTPQGLLGEARMLNASIVASFVELPLASIVSLHASSCGGRLQTSPAPIQTTPPKDTCSPELLMSLIQTKCADDAMTLVLKKELVAHLKCTITGLTFWDPSCEAEDRGDKFVLRSAYSSCGMQVSASMISNEAVVNILSSSSPQRKKVHCLNMDSLSFQLGLYLSPHFLQASNTIEPGQQSFVQVRVSPSVSEFLLQLDSCHLDLGPEGGTVELIQGRAAKGNCVSLLSPSPEGDPRFSFLLHFYTVPIPKTGTLSCTVALRPKTGSQDQEVHRTVFMRLNIISPDLSGCTSKGLVLPAVLGITFGAFLIGALLTAALWYIYSHTRSPSKREPVVAVAAPASSESSSTNHSIGSTQSTPCSTSSMA
notes: Endoglin (CD105) with the HHT1 disease-causing missense variant V105D, made by site directed mutagenesis; Retained in the ER; also called ENG-V105D; p; V105D; source: HEK293, stably transfected (pcDNA3.0), in lysate

Target: the molecule itself
Experiment: non-reducing SDS-PAGE with Western blot; lysates of stably transfected HEK293 cells denatured in sample buffer with or without a reducing agent; blotted with anti-HA

Protein	stoichiometry N
B1	2
B2	2
B3	2
